Measurements taken from PMC9347351 (2022).

Tests used:
AS25 = biological target: T1, AS25 (synthetic construct (Homo sapiens …)); test: ITC
T1 chain: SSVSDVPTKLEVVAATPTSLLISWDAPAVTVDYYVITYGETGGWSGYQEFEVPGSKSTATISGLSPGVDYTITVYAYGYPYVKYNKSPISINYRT

L-pY peptide = L-pY peptide (phosphotyrosine (pY) at the fourth residue; 5-carboxyfluorescein on the N-terminus; C-terminal amide); test: ITC

B1: synthetic L-Bcr-Abl SH2 domain (domain or fragment)
chain: KKKKKSGVNSLEKHSWYHGPVSRNAAEYLLSSGINGSFLVRESESSPGQRSISLRYEGRVYHYRINTASDGKLYVSSESRFNTLAELVHHHSTVADGLITTLHYPAPKRNK
modifications: biotinylated (position of the biotin not stated in the text shown)
Kd (AS25): 0.184 µM | Kd (L-pY peptide): 4.89 µM
